These results are taken from article doi:10.1101/2020.04.15.043133.

Read-outs that look alike come from different tables or passages of the source.

Experiment [1] concerns the target iC3b biotinylated on the thioester cysteine (UniProt P01024). Description: SPR.
Experiment [2] addresses C3d (human) (UniProt P01024). As to the kind of experiment: SPR. For orientation: Surface plasmon resonance follows binding to a sensor surface in real time, without labels.
In experiment [3] the target is iC3b biotinylated on the thioester cysteine (UniProt P01024). As to the kind of experiment: SPR. This is another data set of the same source.
Experiment [4] addresses CR3 headpiece fragment (integrin αMβ2 headpiece) (human) (UniProt P11215). As to the kind of experiment: SEC. Background: In gel filtration, larger molecules generally elute earlier.

As for “CR3 headpiece fragment (integrin αMβ2 headpiece) (from UniProt P11215 17-773; P05107 23-504) (receptor)”, the dissociation constant (Kd) (usually the concentration at which binding is half-saturated) was found to be 30 nM in experiment [1], 515 nM in experiment [2] and 6.2 nM in experiment [3]. The same substance registered a fold lower koff than in the Mg2+ buffer in experiment [3] of 30 fold. In addition, in experiment [4], the stoichiometry N (commonly a count of units in the complex or per binding partner) was 2.
